For two molecules, Ki results are on record in article PMC10319874 (Scientific Reports, 2023).

For one assay, the target named is RgpB (Porphyromonas gingivalis, UniProt P95493 230-736). Nature of the assay: […], Tris buffer (50 mM Tris, 150 mM NaCl, 5 mM CaCl2, pH 8.0) […]. Conditions: both partners purified.
Assay [1] addresses histidine-tagged monomeric RgpA (rRgpAH) (Porphyromonas gingivalis W50, UniProt P28784 228-658). Described as above. Conditions: both partners purified.

RgpB, sequence (P95493 230-736): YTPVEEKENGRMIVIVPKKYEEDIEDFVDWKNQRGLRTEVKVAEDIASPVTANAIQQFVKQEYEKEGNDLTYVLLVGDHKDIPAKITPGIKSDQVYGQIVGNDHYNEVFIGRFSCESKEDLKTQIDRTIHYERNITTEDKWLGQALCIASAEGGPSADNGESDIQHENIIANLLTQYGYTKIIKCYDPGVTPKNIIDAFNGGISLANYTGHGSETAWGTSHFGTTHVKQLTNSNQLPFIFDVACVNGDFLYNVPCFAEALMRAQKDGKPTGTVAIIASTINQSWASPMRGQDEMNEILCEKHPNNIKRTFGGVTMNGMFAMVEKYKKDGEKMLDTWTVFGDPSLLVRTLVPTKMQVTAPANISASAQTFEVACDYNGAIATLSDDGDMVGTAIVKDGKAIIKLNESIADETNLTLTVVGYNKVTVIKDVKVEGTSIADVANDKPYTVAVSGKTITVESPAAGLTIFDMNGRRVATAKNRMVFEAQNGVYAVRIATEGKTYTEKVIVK
histidine-tagged monomeric RgpA (rRgpAH), sequence (P28784 228-658, tags or fused parts left off): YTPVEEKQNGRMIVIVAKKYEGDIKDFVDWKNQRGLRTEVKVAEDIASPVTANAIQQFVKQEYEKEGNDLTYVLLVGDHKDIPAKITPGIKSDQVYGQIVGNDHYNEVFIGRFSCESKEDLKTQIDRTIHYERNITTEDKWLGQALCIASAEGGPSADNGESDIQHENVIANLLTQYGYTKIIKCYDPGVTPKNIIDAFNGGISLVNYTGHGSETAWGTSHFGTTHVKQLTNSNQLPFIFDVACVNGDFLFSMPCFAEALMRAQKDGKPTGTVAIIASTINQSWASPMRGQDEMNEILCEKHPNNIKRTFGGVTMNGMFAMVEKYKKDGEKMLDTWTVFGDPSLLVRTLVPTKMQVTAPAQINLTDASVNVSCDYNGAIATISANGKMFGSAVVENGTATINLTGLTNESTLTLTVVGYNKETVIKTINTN

B1: recombinant RgpA propeptide (rRgpA-PP) (domain or fragment)
chain: QQTELGRNPNVRLLESTQQSVTKVQFRMDNLKFTEVQTPKGMAQVPTYTEGVNLSEKGMPTLPILSRSLAVSDTREMKVEVVSSKFIEKKNVLIAPSKGMIMRNEDPKKIPYVYGKSYSQNKFFPGEIATLDDPFILRDVRGQVVNFAPLQYNPVTKTLRIYTEITVAVSETSEQGKNILNKKGTFAGFEDTYKRMFMNYEPGR
As a reminder, the Ki is the dissociation constant of the complex between target and ligand, obtained from inhibition or displacement. The low end stands for higher affinity, the high end for lower affinity. B1: the Ki in the assay with RgpB was 15 nM; in assay [1], 13 nM.

B2: recombinant RgpB propeptide (rRgpB-PP) (domain or fragment)
chain: QPAERGRNPQVRLLSAEQSMSKVQFRMDNLQFTGVQTSKGVAQVPTFTEGVNISEKGTPILPILSRSLAVSETRAMKVEVVSSKFIEKKDVLIAPSKGVISRAENPDQIPYVYGQSYNEDKFFPGEIATLSDPFILRDVRGQVVNFAPLQYNPVTKTLRIYTEIVVAVSETAEAGQNTISLVKNSTFTGFEDIYKSVFMNYEATR
B2: the inhibition constant (Ki) with RgpB amounted to 29 nM; in assay [1], 22 nM.
